Results reported in US20210063414A1, “METHODS FOR PREVENTING AND/OR TREATING BONE LOSS CONDITIONS BY MODULATING IRISIN” (Dana-Farber Cancer Institute, Inc., priority 2018, published 2021).

Target: T1, MLO-Y4 cell surface proteins (Mus musculus, UniProt O88492)
T1 construct: endogenous in cells; host or cells: MLO-Y4
T1 sequence (O88492 1-1403): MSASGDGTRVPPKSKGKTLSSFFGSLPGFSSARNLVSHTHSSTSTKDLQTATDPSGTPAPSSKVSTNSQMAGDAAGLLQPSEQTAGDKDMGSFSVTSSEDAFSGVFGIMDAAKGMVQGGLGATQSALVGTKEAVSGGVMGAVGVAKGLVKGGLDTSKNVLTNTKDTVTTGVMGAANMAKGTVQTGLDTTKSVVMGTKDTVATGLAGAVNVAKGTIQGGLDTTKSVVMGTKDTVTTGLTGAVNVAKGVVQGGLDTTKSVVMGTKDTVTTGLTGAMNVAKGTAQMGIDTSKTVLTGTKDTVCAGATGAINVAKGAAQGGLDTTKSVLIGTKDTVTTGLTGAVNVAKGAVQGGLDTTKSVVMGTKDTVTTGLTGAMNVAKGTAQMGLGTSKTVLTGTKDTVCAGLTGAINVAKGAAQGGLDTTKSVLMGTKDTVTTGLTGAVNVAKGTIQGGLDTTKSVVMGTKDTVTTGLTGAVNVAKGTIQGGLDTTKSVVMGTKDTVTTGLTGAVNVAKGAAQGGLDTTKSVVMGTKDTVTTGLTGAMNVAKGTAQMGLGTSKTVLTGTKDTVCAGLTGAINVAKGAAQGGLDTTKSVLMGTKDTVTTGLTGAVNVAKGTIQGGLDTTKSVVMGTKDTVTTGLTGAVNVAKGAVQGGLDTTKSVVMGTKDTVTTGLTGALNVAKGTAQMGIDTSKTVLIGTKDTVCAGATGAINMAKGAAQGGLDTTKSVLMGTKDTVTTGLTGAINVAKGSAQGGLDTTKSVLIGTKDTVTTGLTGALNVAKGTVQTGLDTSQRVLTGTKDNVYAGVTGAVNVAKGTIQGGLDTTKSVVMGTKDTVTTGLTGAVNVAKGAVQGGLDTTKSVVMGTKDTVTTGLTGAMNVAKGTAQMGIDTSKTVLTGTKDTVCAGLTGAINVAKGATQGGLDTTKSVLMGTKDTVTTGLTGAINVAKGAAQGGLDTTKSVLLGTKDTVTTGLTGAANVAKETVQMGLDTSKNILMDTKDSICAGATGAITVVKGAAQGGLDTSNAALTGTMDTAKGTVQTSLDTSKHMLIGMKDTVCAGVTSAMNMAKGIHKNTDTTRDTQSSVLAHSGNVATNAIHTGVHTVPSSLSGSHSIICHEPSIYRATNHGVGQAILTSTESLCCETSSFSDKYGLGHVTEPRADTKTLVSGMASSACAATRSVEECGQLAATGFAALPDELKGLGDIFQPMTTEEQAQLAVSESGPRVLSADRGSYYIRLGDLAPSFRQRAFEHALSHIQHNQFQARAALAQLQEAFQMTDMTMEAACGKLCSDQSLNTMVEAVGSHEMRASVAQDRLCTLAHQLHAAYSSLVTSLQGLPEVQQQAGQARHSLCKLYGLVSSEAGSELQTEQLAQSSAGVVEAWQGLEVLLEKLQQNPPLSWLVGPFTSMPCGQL
Assay: Crosslinking/co-immunoprecipitation/mass spectrometry (TMT quantitative proteomics) to identify irisin receptors
Assay type: binding
Conditions: co-precipitated protein Plin4 (PLIN4_MOUSE)
Procedure, shortened: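 Relative protein abundance came from 6-plex TMT MS3 quantitation on an Orbitrap Fusion Lumos, after in-gel trypsin digestion of Coomassie-stained SDS-PAGE lanes. Input was a Ni-NTA pulldown (250 mM imidazole elution) of lysates from murine MLO-Y4 cells. These cells were treated on ice with His-tagged irisin or adipsin (10 nM, 20 min) in serum-free medium, then crosslinked with 1.5 mM DTSSP for 30 min.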

B1: irisin: secreted cleaved form of FNDC5; recombinant human/mouse irisin with C-terminal his tag produced in HEK293 cells (protein)
chain: DSPSAPVNVTVRHLKANSAVVSWDVLEDEVVIGFAISQQKKDVRMLRFIQEVNTTTRSCALWDLEEDTEYIVHVQAISIQGQSPASEPVLFKTPREAEKMASKNKDEVTMKE
modifications: left off: small tags and cut ends
notes: secreted cleaved form of FNDC5; recombinant human/mouse irisin with C-terminal his tag produced in HEK293 cells
TMT signal-to-noise ratio: 18.9196
irisin/adipsin TMT signal-to-noise ratio: 0.169
